Measurements published in US20240401063, “Aptamer for DKK1 and Use Thereof” (APTACURE THERAPEUTICS LIMITED, published 2024).

T1: DKK1 (Dickkopf-1), full-length (Homo sapiens, UniProt O94907 SEQ:32-266)
T1 sequence: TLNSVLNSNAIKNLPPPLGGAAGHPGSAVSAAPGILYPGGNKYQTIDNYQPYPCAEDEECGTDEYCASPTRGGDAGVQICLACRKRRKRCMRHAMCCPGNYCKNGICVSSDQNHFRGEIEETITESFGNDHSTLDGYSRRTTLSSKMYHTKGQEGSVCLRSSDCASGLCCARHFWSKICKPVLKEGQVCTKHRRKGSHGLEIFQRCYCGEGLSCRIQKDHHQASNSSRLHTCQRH


molecular target: T1, DKK1 (Dickkopf-1), full-length; experiment: BLI; settings: tags: His6
Protocol: The specificity against DKK-1 was determined with 1 μM of each aptamer/RS for 19 potential sequences with the highest occurrence rate in the 30th round by ELONA. […] Next, the binding affinity against DKK1 was determined for candidate aptamers by BLL. DKK1 protein was applied at gradient concentrations of 0 nM, 3.125 nM, 6.25 nM, 12.5 nM, 25 nM, 50 nM, 100 nM, and 200 nM.

Binder	Kd
TCCTCTTCCTTTGGCTAGGTTGGTTAGGTTGGTGC (ssDNA) [D30-10]	1.97 nM
CTTCTTGTCCCTCGATGTGTTCAGTGTTTGTGTGT (ssDNA) [D30-3]	2.64 nM
TACCTTCTGCTCGATGTGTTCAGTGTGTTGTGTGT (ssDNA) [D30-19]	20.1 nM
AATTTCGATAGTCCATGTGTTCAGTGCCTGTGTGT (ssDNA) [D30-15]	2.92 nM
CTGTTCTAACGTGGTTGACCCCCCTTTGCTTTGAC (ssDNA) [D30-9]	2.42 nM
CATTGTCTCAGCGCATGTGTTCAGTTCTTGTGTGT (ssDNA) [D30-2]	2.89 nM
TGTAGATAGAGGGGTTGGTGTGGTTGGCGCTATCC (ssDNA) [D30-7]	5.5 nM
TCTGCTTTCACGTACTAGGTTGGTTAGGTTGGTGT (ssDNA) [D30-18]	20.8 nM
TATGGTTTCCCTACATGTGTTCAGTGTTTGTGTGT (ssDNA) [D30-13]	1.67 nM
CAGTCTTAGTGCTCATGTGTTCAGTGTTTGTGTGT (ssDNA) [D30-17]	20.1 nM
TGCATCTTCCTTCTTCGATTCTATGCTCGGCCGCG (ssDNA) [D30-8]	3.19 nM
TCGTGCTTGATTCCATGCTTGGCCGCCTTCTCGTG (ssDNA) [D30-12]	5.99 nM
TGCTGAACTTTACGTGATTCTAGTCGCTGACCGCG (ssDNA) [D30-4]	23 nM
ATGCCCCTCCTCTGTTGAACTGTTTACCCCTTTGA (ssDNA) [D30-14]	2.54 nM
ATGTAAATCGATTCCTCTGGCCGCATCGCGCTTTA (ssDNA) [D30-16]	1.9 nM
ATGTCCATTTGCGAGTAGGTGTTTGAGTGAGGTGA (ssDNA) [D30-1]	5.34 nM

molecular target: T1, DKK1 (Dickkopf-1), full-length; experiment: ELONA; specificity High at 1 uM; Kd not given; settings: tags: His6; label: biotin
Protocol: (§1) Enzyme linked oligonucleotide assay (ELONA): 160 ng DKK1 per well and negative target were coated in a 96-well microtiter plate by incubating at 4° C. overnight through hydrophobic interaction. Non-binding sites in wells were blocked with bull serum albumin (BSA) at room temperature for 1 hour, and then washed with DNA-binding buffer 4 times for 5 minutes each. The biotinylated aptamer candidates/RS with an appropriate concentration were added to each well and incubated at room temperature for 45 minutes with continuous gentle shaking. After binding, the plate was washed with washing buffer 4 times for 5 minutes each to remove non-specific and weakly binding sequences. 100 μl streptavidin-horseradish peroxidase (HRP) (1:10000 dilute into PBST+0.1% BSA) was added to each well, and incubated for 30 minutes, and washed for 4 times with the binding buffer. 50 μl 3,3′,5,5′-tetramethylbenzidine (TMB) as a HRP substrate was added to each well and incubated for 20 minutes. 50 μl 2M H₂SO₄ was added to terminate the reaction. The absorbance at 450 nm was measured with a microplate reader (Molecular Device i3x). Data was analyzed with Origin software. A binding curve was generated and KD was calculated with a non-linear curve fitting model logistic.
The specificity of 1 μM of each adapter/RS against DKK-1 was determined for 20 potential sequences with the highest occurrence rate (Table 4) by ELONA and the absorbance at 450 nm was detected.

Binder	binding result
Aptdkk-15 (ssDNA) DNA: CGTACGGTCGACGCTAGCACGTTCAGATACCTTTTTTCCCCTTTGTTCTGCCGGGATCCGAGCTCCACGTG	binds
Aptdkk-4 (ssDNA) DNA: CGTACGGTCGACGCTAGCTGCACGCTTTTCCCTCCTTTTCTCGTCTGACCGCGGGATCCGAGCTCCACGTG	binds
Aptdkk-7 (ssDNA) DNA: CGTACGGTCGACGCTAGCAGCCCCCTTCCTTTCTTCCTCGACCTCCCTCCGCAGGATCCGAGCTCCACGTG	binds
Aptdkk-10 (ssDNA) DNA: CGTACGGTCGACGCTAGCACTCTCCACGTTTTTCCACCTCCTTCCTCCTTTGCGGATCCGAGCTCCACGTG	binds
Aptdkk-11 (ssDNA) DNA: CGTACGGTCGACGCTAGCCATCCAGCTCCCTTTATTCCCTCTGTACCCTCCTGGGATCCGAGCTCCACGTG	binds
Aptdkk-16 (ssDNA) DNA: CGTACGGTCGACGCTAGCTACACGCCATCGGTGCCCTTTTCTCTTCTTGTCTGGGATCCGAGCTCCACGTG	binds

same assay, conditions: tags: His6; label: biotin; G-rich, predicted G4

Binder	binding result
Aptdkk-2 (ssDNA) DNA: CGTACGGTCGACGCTAGCTGGTGTTGGGGTGGGTTGGTGGGTATTTTGGCGGTGGATCCGAGCTCCACGTG	binds
Aptdkk-14 (ssDNA) DNA: CGTACGGTCGACGCTAGCCTGTGCAGTTGGTTGGTTATGGTTGGGACTGTCAGGATCCGAGCTCCACGTG	binds

molecular target: T1, DKK1 (Dickkopf-1), full-length; experiment: ELONA; room temperature; settings: tags: His6; label: biotin
Protocol: as §1
Aptamer candidates with significant specificity and Candidate 3 as a negative control were used to determine the binding affinity against DKK1. Candidates 1, 2, 4, and 14 had concentrations of (0, 62.5 nM, 125 nM, 250 nM, 500 nM, 1000 nM, 2000 nM, and 4000 nM), Candidates 7, 10, 15, and 16 had concentrations of (0, 23.44 nM, 46.86 nM, 93.75 nM, 187.5 nM, 375 nM, 750 nM, and 1500 nM), and other candidates had concentrations of (0, 0.18 nM, 0.74 nM, 2.96 nM, 11.84 nM, 47.35 nM, 189.39 nM, and 757.58 nM). […] Six candidates (aptdkk-5, 13, 20, 19, 6, and 1) were rich in G. The other five sequences (aptdkk-9, 18, 12, 17, and 8) were not rich in G.

Binder	Kd
Aptdkk-17 (ssDNA) DNA: CGTACGGTCGACGCTAGCTACTTCTCCACGTCTCTTTCCCTGTCCCCTTCGCAGGATCCGAGCTCCACGTG	50.4 nM
Aptdkk-18 (ssDNA) DNA: CGTACGGTCGACGCTAGCTCCACCCAATTCTCTTCCCGTCTTTCCTGCACATGGGATCCGAGCTCCACGTG	8.2 nM
Aptdkk-12 (ssDNA) DNA: CGTACGGTCGACGCTAGCTCCCCTCATAATCCGACTTTTTCCCTCCCCCTCCCGGATCCGAGCTCCACGTG	38.2 nM
Aptdkk-8 (ssDNA) DNA: CGTACGGTCGACGCTAGCTGCCACCCCTGTTTTCCACATTTTCCTCGACCGCGGGATCCGAGCTCCACGTG	104 nM
Aptdkk-9 (ssDNA) DNA: CGTACGGTCGACGCTAGCTACACCCCTTCCTGTTCTATTCTTCCTGCCTTGCGGGATCCGAGCTCCACGTG	4.2 nM

same assay, conditions: tags: His6; label: biotin; G-rich, predicted G4

Binder	Kd
Aptdkk-19 (ssDNA) DNA: CGTACGGTCGACGCTAGCATAGGTTGGGTAGGTTGGTTGCTTTTTTTGTCGCGGGATCCGAGCTCCACGTG	9.7 nM
Aptdkk-6 (ssDNA) DNA: CGTACGGTCGACGCTAGCCCGGTTGCAATGGTTGGGGTGGTTGGTTTTGCATGGGATCCGAGCTCCACGTG	29.4 nM
Aptdkk-1 (ssDNA) DNA: CGTACGGTCGACGCTAGCTGTGGTTATGGGGTTGGTGGGTGGGTTCTTACGGAGGATCCGAGCTCCACGTG	344 nM
Aptdkk-13 (ssDNA) DNA: CGTACGGTCGACGCTAGCTGGTGTGGGGGTGGGTGGTGGGTTGTATCGTTTGAGGATCCGAGCTCCACGTG	1.1 nM

molecular target: T1, DKK1 (Dickkopf-1), full-length; experiment: ELONA; 1 nM: no or slight difference from aptdkk5; settings: tags: His6; label: biotin
Protocol: as §1
The specificity of 100 nM/i nM of each aptamer/RS against DKK-1 was determined for 24 truncated sequences of aptdkk5 and original aptdkk5 (Table 6) by ELONA and the absorbance at 450 nm was detected. When the concentration was 100 nM, there was no significant difference or slight difference in the absorbance between apt5-1-38, apt5-1-35, apt5-1-62, or apt5-1-59 and the original aptdkk5 (FIG. 8a). When the concentration was 1 nM, there was no significant difference or slight difference in the absorbance between apt5-1-50, apt5-1-47, apt5-1-44, apt5-1-41, apt5-1-38, apt5-1-35, apt5-1-65, apt5-1-62, apt5-1-59, or apt5-1-53 and the original aptdkk5 (FIG. 8b). After the specificity and length of these aptamers were considered, apt5-1-44, apt5-1-41, apt5-1-38, and apt5-1-35 were selected to determine the binding affinity against DKK1.

Binder	binding result
CGTACGGTCGACGCTAGCTGGTGGTTGGGGTGGGTGGTGGTTGTTCG (ssDNA) [Apt5-1-47]	binds
CGTACGGTCGACGCTAGCTGGTGGTTGGGGTGGGTGGTGGTTGTTCGTGG (ssDNA) [Apt5-1-50]	binds
